The record followed here is patent US20140322196A1 (priority 2011, published 2014).

The subject of the test is A/Parma/24/09 (Brisbane-like) (oseltamivir-resistant) H1N1. It counts as cell-based, Influenza A virus. The note with it: A/Parma/24/09 H1N1.

B1: bLf: Lactoferrin from bovine milk, purchased from Morinaga Milk Industries, deprived of endotoxin (protein, UniProt P24627 20-708, looked up)
Lactotransferrin: APRKNVRWCTISQPEWFKCRRWQWRMKKLGAPSITCVRRAFALECIRAIAEKKADAVTLDGGMVFEAGRDPYKLRPVAAEIYGTKESPQTHYYAVAVVKKGSNFQLDQLQGRKSCHTGLGRSAGWIIPMGILRPYLSWTESLEPLQGAVAKFFSASCVPCIDRQAYPNLCQLCKGEGENQCACSSREPYFGYSGAFKCLQDGAGDVAFVKETTVFENLPEKADRDQYELLCLNNSRAPVDAFKECHLAQVPSHAVVARSVDGKEDLIWKLLSKAQEKFGKNKSRSFQLFGSPPGQRDLLFKDSALGFLRIPSKVDSALYLGSRYLTTLKNLRETAEEVKARYTRVVWCAVGPEEQKKCQQWSQQSGQNVTCATASTTDDCIVLVLKGEADALNLDGGYIYTAGKCGLVPVLAENRKSSKHSSLDCVLRPTEGYLAVAVVKKANEGLTWNSLKDKKSCHTAVDRTAGWNIPMGLIVNQTGSCAFDEFFSQSCAPGADPKSRLCALCAGDDQGLDKCVPNSKEKYYGYTGAFRCLAEDVGDVAFVKNDTVWENTNGESTADWAKNLNREDFRLLCLDGTRKPVTEAQSCHLAVAPNHAVVSRSDRAAHVKQVLLHQQALFGKNGKNCPDKFCLFKSETKNLLFNDNTECLAKLGGRPTYEEYLGTEYVTAIANLKKCSTSPLLEACAFLTR
Turning to B1, the HI titre is 6 nM.
